For seven molecules, binding result and binding signal results are on record in article PMC12528421.

Holding throughout (assay): EMSA
For orientation: Mobility shift assays separate free from complexed probe on a gel.

Data set [1] has as its target GST-STAT3 (human, UniProt P40763 1-770).
Data set [2] deals with T1, Flag-AS160 (human, UniProt O60343 1-1298).
T1 sequence: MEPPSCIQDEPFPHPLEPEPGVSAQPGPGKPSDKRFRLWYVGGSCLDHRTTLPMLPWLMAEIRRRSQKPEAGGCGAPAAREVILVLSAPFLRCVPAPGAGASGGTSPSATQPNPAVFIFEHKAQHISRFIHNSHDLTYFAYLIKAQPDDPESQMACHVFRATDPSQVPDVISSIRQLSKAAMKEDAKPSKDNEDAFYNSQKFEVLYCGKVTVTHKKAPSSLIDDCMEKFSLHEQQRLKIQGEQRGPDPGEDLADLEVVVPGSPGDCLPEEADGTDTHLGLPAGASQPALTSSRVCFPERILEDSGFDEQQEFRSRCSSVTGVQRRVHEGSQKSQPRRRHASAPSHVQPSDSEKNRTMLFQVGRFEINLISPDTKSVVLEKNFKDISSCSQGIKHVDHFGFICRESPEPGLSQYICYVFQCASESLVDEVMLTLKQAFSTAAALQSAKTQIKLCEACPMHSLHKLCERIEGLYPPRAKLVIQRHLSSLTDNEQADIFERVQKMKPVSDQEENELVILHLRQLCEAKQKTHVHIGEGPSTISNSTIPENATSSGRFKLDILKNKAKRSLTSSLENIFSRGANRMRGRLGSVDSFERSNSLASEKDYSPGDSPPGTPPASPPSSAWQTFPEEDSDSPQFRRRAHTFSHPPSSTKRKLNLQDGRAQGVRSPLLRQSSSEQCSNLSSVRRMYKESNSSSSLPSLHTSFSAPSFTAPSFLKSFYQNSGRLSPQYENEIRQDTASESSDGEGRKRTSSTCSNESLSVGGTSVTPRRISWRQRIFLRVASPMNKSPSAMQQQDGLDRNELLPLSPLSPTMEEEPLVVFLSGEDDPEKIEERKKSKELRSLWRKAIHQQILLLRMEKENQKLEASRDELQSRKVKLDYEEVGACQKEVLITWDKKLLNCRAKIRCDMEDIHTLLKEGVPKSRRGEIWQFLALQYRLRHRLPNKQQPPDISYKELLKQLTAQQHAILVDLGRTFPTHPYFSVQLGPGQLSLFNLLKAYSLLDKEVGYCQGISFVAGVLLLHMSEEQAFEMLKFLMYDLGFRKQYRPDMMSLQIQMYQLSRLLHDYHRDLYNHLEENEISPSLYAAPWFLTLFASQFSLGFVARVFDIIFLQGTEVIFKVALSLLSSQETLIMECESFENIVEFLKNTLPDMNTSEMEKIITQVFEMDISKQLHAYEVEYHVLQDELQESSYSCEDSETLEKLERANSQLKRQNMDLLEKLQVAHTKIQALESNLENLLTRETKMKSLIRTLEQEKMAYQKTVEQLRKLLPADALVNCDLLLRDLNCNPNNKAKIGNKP

Data set [3] concerns the target T2, GST-STAT3;Flag-AS160 (human;human, UniProt P40763;O60343 1-770;1-1298, |).
Data set [4] deals with T2, GST-STAT3;Flag-AS160. This is another data set of the same source.

T2 sequence (P40763 whole entry, one chain of several): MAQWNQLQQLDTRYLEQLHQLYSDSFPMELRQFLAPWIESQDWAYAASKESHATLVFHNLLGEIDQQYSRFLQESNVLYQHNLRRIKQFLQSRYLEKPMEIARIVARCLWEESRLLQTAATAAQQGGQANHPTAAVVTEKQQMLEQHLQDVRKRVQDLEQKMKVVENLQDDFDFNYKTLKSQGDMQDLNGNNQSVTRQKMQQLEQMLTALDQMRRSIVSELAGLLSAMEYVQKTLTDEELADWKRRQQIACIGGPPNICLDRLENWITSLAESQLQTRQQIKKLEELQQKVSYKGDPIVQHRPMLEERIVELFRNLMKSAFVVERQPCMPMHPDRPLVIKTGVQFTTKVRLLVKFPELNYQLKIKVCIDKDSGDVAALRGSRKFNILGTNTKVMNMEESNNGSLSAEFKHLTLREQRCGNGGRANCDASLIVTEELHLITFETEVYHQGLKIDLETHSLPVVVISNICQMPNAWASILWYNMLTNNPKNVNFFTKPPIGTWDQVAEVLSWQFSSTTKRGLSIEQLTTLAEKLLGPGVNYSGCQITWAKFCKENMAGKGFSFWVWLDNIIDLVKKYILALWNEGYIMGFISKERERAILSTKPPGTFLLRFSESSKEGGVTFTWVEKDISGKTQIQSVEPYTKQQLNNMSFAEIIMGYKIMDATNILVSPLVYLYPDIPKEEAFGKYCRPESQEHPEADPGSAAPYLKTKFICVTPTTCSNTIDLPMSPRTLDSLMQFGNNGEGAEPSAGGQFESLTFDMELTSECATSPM
Sequence of GST-STAT3 (P40763 whole entry): as the sequence (P40763 whole entry, one chain of several) above

B1: Myod1 promoter bind site 1 probe (dsDNA)
DNA 1: ATTGGATTCCTGGCATCCGTTGGATTCCTGGCATCCGTTGGATTCCTGGCATCCG
DNA 2: CGGATGCCAGGAATCCAACGGATGCCAGGAATCCAACGGATGCCAGGAA
Turning to B1, the binding result in data set [1] is given as “binds”; in data set [2], “no binding”; in data set [3], “binds”.

B2: Pax7 promoter bind site 3 probe (dsDNA)
DNA 1: AATTCTTCCGGGGATGTCAATTCTTCCGGGGATGTCAATTCTTCCGGGGATGTC
DNA 2: GACATCCCCGGAAGAATTGACATCCCCGGAAGAATTGACATCCCCGGA
As to B2, the results for the binding result in data set [1], in data set [2] and in data set [3] were “binds”, “no binding” and “binds”, respectively.

B3: Pax7 promoter bind site 2 probe (dsDNA)
DNA 1: ATCCCATCCCCGGAAGCCCTCCCATCCCCGGAAGCCCTCCCATCCCCGGAAGCCC
DNA 2: GGGCTTCCGGGGATGGGAGGGCTTCCGGGGATGGGAGGGCTTCCGGGGA
With B3, the binding result in data set [1] is listed as “binds”; in data set [2], “no binding”; in data set [3], “binds”.

B4: Myod1 promoter bind site 3 probe (dsDNA)
DNA 1: CAGATATTCTCTGAGCCATTCCCAGATGAGATATTCTCTGAGCCATTCCCAGATGG
DNA 2: CCATCTGGGAATGGCTCAGAGAATATCTCATCTGGGAATGGCTCAGAGAAT
On to B4, for which the values for the binding result in data set [1], in data set [2] and in data set [3] were “binds”, “no binding” and “binds”, respectively.

B5: Pax7 promoter bind site 1 probe (dsDNA)
DNA 1: ATATGTTTACAGAAAGACATATGTTTACAGAAAGACATATGTTTACAGAAAGACA
DNA 2: TGTCTTTCTGTAAACATATGTCTTTCTGTAAACATATGTCTTTCTGTAA
For B5, the values for the binding result in data set [1], in data set [2] and in data set [3] were “binds”, “no binding” and “binds”, respectively.

B6: Classical STAT3 motif probe (dsDNA)
DNA 1: GATCCTTCTGGGAATTCCGATCCTTCTGGGAATTCCGATCCTTCTGGGAATTCC
DNA 2: GGAATTCCCAGAAGGATCGGAATTCCCAGAAGGATCGGAATTCCCAGA
In the case of B6, the values for the binding result in data set [1] and in data set [2] were “binds” and “no binding”, respectively. Further, the binding signal in data set [4] is > 2 fold vs STAT3 alone.

B7: Myod1 promoter bind site 2 probe (dsDNA)
DNA 1: ACATTGTTCCTGGATATGACATTGTTCCTGGATATGACATTGTTCCTGGATATGA
DNA 2: TCATATCCAGGAACAATGTCATATCCAGGAACAATGTCATATCCAGGAA
For B7, the binding result is “binds” in data set [1], “no binding” in data set [2] and “binds” in data set [3].
